# Values of other authors in patent publication US20200069786A1, “COMPOSITION AND PROCESS FOR PREPARING VACCINE” (TREOS BIO ZRT., priority 2018, published 2020).
# B1: MAGE-C2 (protein, UniProt Q9UBF1 1-373, looked up)
# Melanoma-associated antigen C2: MPPVPGVPFRNVDNDSPTSVELEDWVDAQHPTDEEEEEASSASSTLYLVFSPSSFSTSSSLILGGPEEEEVPSGVIPNLTESIPSSPPQGPPQGPSQSPLSSCCSSFSWSSFSEESSSQKGEDTGTCQGLPDSESSFTYTLDEKVAELVEFLLLKYEAEEPVTEAEMLMIVIKYKDYFPVILKRAREFMELLFGLALIEVGPDHFCVFANTVGLTDEGSDDEGMPENSLLIIILSVIFIKGNCASEEVIWEVLNAVGVYAGREHFVYGEPRELLTKVWVQGHYLEYREVPHSSPPYYEFLWGPRAHSESIKKKVLEFLAKLNNTVPSSFPSWYKDALKDVEERVQATIDTADDATVMASESLSVMSSNVSFSE
# B2: SCP-1 (protein, UniProt Q15431 1-976, looked up)
# Synaptonemal complex protein 1: MEKQKPFALFVPPRSSSSQVSAVKPQTLGGDSTFFKSFNKCTEDDFEFPFAKTNLSKNGENIDSDPALQKVNFLPVLEQVGNSDCHYQEGLKDSDLENSEGLSRVYSKLYKEAEKIKKWKVSTEAELRQKESKLQENRKIIEAQRKAIQELQFGNEKVSLKLEEGIQENKDLIKENNATRHLCNLLKETCARSAEKTKKYEYEREETRQVYMDLNNNIEKMITAFEELRVQAENSRLEMHFKLKEDYEKIQHLEQEYKKEINDKEKQVSLLLIQITEKENKMKDLTFLLEESRDKVNQLEEKTKLQSENLKQSIEKQHHLTKELEDIKVSLQRSVSTQKALEEDLQIATKTICQLTEEKETQMEESNKARAAHSFVVTEFETTVCSLEELLRTEQQRLEKNEDQLKILTMELQKKSSELEEMTKLTNNKEVELEELKKVLGEKETLLYENKQFEKIAEELKGTEQELIGLLQAREKEVHDLEIQLTAITTSEQYYSKEVKDLKTELENEKLKNTELTSHCNKLSLENKELTQETSDMTLELKNQQEDINNNKKQEERMLKQIENLQETETQLRNELEYVREELKQKRDEVKCKLDKSEENCNNLRKQVENKNKYIEELQQENKALKKKGTAESKQLNVYEIKVNKLELELESAKQKFGEITDTYQKEIEDKKISEENLLEEVEKAKVIADEAVKLQKEIDKRCQHKIAEMVALMEKHKHQYDKIIEERDSELGLYKSKEQEQSSLRASLEIELSNLKAELLSVKKQLEIEREEKEKLKREAKENTATLKEKKDKKTQTFLLETPEIYWKLDSKAVPSQTVSRNFTSVDHGISKDKRDYLWTSAKNTLSTPLPKAYTVKTPTKPKLQQRENLNIPIEESKKKRKMAFEFDINSDSSETTDLLSMVSEEETLKTLYRNNNPPASHLCVKTPKKAPSSLTTPGSTLKFGAIRKMREDRWAVIAKMDRKKKLKEAEKLFV
# B3: SSX-4 (protein, UniProt O60224 1-188, looked up)
# Protein SSX4: MNGDDAFARRPRDDAQISEKLRKAFDDIAKYFSKKEWEKMKSSEKIVYVYMKLNYEVMTKLGFKVTLPPFMRSKRAADFHGNDFGNDRNHRNQVERPQMTFGSLQRIFPKIMPKKPAEEENGLKEVPEASGPQNDGKQLCPPGNPSTLEKINKTSGPKRGKHAWTHRLRERKQLVVYEEISDPEEDDE
# B4: SSX-2 (protein, UniProt Q16385 1-188, looked up)
# Protein SSX2: MNGDDAFARRPTVGAQIPEKIQKAFDDIAKYFSKEEWEKMKASEKIFYVYMKRKYEAMTKLGFKATLPPFMCNKRAEDFQGNDLDNDPNRGNQVERPQMTFGRLQGISPKIMPKKPAEEGNDSEEVPEASGPQNDGKELCPPGKPTTSEKIHERSGPKRGEHAWTHRLRERKQLVIYEEISDPEEDDE
# B5: TDRD1 (protein, UniProt Q9BXT4 1-1180, looked up)
# Tudor domain-containing …: MSVKSPFNVMSRNNLEAPPCKMTEPFNFEKNENKLPPHESLRSPGTLPNHPNFRLKSSENGNKKNNFLLCEQTKQYLASQEDNSVSSNPNGINGEVVGSKGDRKKLPAGNSVSPPSAESNSPPKEVNIKPGNNVRPAKSKKLNKLVENSLSISNPGLFTSLGPPLRSTTCHRCGLFGSLRCSQCKQTYYCSTACQRRDWSAHSIVCRPVQPNFHKLENKSSIETKDVEVNNKSDCPLGVTKEIAIWAERIMFSDLRSLQLKKTMEIKGTVTEFKHPGDFYVQLYSSEVLEYMNQLSASLKETYANVHEKDYIPVKGEVCIAKYTVDQTWNRAIIQNVDVQQKKAHVLYIDYGNEEIIPLNRIYHLNRNIDLFPPCAIKCFVANVIPAEGNWSSDCIKATKPLLMEQYCSIKIVDILEEEVVTFAVEVELPNSGKLLDHVLIEMGYGLKPSGQDSKKENADQSDPEDVGKMTTENNIVVDKSDLIPKVLTLNVGDEFCGVVAHIQTPEDFFCQQLQSGRKLAELQASLSKYCDQLPPRSDFYPAIGDICCAQFSEDDQWYRASVLAYASEESVLVGYVDYGNFEILSLMRLCPIIPKLLELPMQAIKCVLAGVKPSLGIWTPEAICLMKKLVQNKIITVKVVDKLENSSLVELIDKSETPHVSVSKVLLDAGFAVGEQSMVTDKPSDVKETSVPLGVEGKVNPLEWTWVELGVDQTVDVVVCVIYSPGEFYCHVLKEDALKKLNDLNKSLAEHCQQKLPNGFKAEIGQPCCAFFAGDGSWYRALVKEILPNGHVKVHFVDYGNIEEVTADELRMISSTFLNLPFQGIRCQLADIQSRNKHWSEEAITRFQMCVAGIKLQARVVEVTENGIGVELTDLSTCYPRIISDVLIDEHLVLKSASPHKDLPNDRLVNKHELQVHVQGLQATSSAEQWKTIELPVDKTIQANVLEIISPNLFYALPKGMPENQEKLCMLTAELLEYCNAPKSRPPYRPRIGDACCAKYTSDDFWYRAVVLGTSDTDVEVLYADYGNIETLPLCRVQPITSSHLALPFQIIRCSLEGLMELNGSSSQLIIMLLKNFMLNQNVMLSVKGITKNVHTVSVEKCSENGTVDVADKLVTFGLAKNITPQRQSALNTEKMYRMNCCCTELQKQVEKHEHILLFLLNNSTNQNKFIEMKKLLKS
# B6: FMR1NB (protein, UniProt Q8N0W7 1-255, looked up)
# FMR1 neighbor protein: MSSHRRKAKGRNRRSHRAMRVAHLELATYELAATESNPESSHPGYEAAMADRPQPGWRESLKMRVSKPFGMLMLSIWILLFVCYYLSYYLCSGSSYFVLANGHILPNSENAHGQSLEEDSALEALLNFFFPTTCNLRENQVAKPCNELQDLSESECLRHKCCFSSSGTTSFKCFAPFRDVPKQMMQMFGLGAISLILVCLPIYCRSLFWRSEPADDLQRQDNRVVTGLKKQRRKRKRKSEMLQKAARGREEHGDE
# B7: TAF7L (protein, UniProt Q5H9L4 1-462, looked up)
# Transcription initiation …: MECPEGQLPISSENDSTPTVSTSEVTSQQEPQILVDRGSETTYESSADIAGDEGTQIPADEDTQTDADSSAQAAAQAPENFQEGKDMSESQDEVPDEVENQFILRLPLEHACTVRNLARSQSVKMKDKLKIDLLPDGRHAVVEVEDVPLAAKLVDLPCVIESLRTLDKKTFYKTADISQMLVCTADGDIHLSPEEPAASTDPNIVRKKERGREEKCVWKHGITPPLKNVRKKRFRKTQKKVPDVKEMEKSSFTEYIESPDVENEVKRLLRSDAEAVSTRWEVIAEDGTKEIESQGSIPGFLISSGMSSHKQGHTSSEYDMLREMFSDSRSNNDDDEDEDDEDEDEDEDEDEDEDKEEEEEDCSEEYLERQLQAEFIESGQYRANEGTSSIVMEIQKQIEKKEKKLHKIQNKAQRQKDLIMKVENLTLKNHFQSVLEQLELQEKQKNEKLISLQEQLQRFLKK
# Tested on: TSA
# Conditions: BRAIN
row,Molecule,TSA Expression Rate (ER)
1,B1,34%
2,B2,14%
3,B3,4%
4,B4,4%

# Same assay, conditions: BREAST
row,Molecule,TSA Expression Rate (ER)
1,B1,19%
2,B5,38%
3,B2,37%
4,B6,55%
5,B3,27%
6,B7,0%
7,B4,7%

# Same assay, conditions: HCC
row,Molecule,TSA Expression Rate (ER)
1,B1,37%
2,B2,25%
3,B3,48%
4,B4,46%

# Same assay, conditions: LUNG
row,Molecule,TSA Expression Rate (ER)
1,B1,27%
2,B6,28%

# Same assay, conditions: OVARIAN
row,Molecule,TSA Expression Rate (ER)
1,B2,15%
2,B3,13%
3,B4,7%

# Same assay, conditions: PANCREATIC
row,Molecule,TSA Expression Rate (ER)
1,B2,31%
2,B3,21%
3,B4,4%

# Same assay, conditions: THYROID
row,Molecule,TSA Expression Rate (ER)
1,B1,0%
2,B5,0%
3,B2,0%
4,B3,0%
5,B7,0%
6,B4,8%

# Same assay, conditions: TSA expression rate in BLADDER cancer
row,Molecule,Expression Rate (ER) %
1,B1,19%
2,B5,29%
3,B2,2%
4,B3,11%
5,B7,10%
6,B4,13%

# Same assay, conditions: TSA expression rate in CRC
row,Molecule,Expression Rate (ER) %
1,B1,4%
2,B5,0%
3,B2,6%
4,B7,0%
5,B4,5%

# Same assay, conditions: TSA expression rate in Cervical cancer
row,Molecule,Expression Rate (ER) %
1,B3,20%
2,B4,4%

# Same assay, conditions: TSA expression rate in Esophageal
row,Molecule,Expression Rate (ER) %
1,B1,11%
2,B5,10%
3,B2,2%
4,B6,8%
5,B3,7%
6,B7,0%
7,B4,0%

# Same assay, conditions: TSA expression rate in GASTRIC cancer
row,Molecule,Expression Rate (ER) %
1,B1,10%
2,B2,14%
3,B3,23%
4,B4,3%

# Same assay, conditions: TSA expression rate in HEAD and NECK
row,Molecule,Expression Rate (ER) %
1,B1,29%
2,B5,22%
3,B2,12%
4,B3,29%
5,B7,10%
6,B4,17%

# Same assay, conditions: TSA expression rate in Kidney
row,Molecule,Expression Rate (ER) %
1,B5,0%
2,B2,8%
3,B6,0%
4,B3,0%
5,B7,0%
6,B4,2%

# Same assay, conditions: TSA expression rate in LEUKEMIAS
row,Molecule,Expression Rate (ER) %
1,B1,37%
2,B2,11%
3,B3,30%
4,B4,12%

# Same assay, conditions: TSA expression rate in LUNG cancer
row,Molecule,Expression Rate (ER) %
1,B5,5%
2,B2,1%
3,B3,13%
4,B7,9%
5,B4,10%

# Same assay, conditions: TSA expression rate in LYMPHOMAS
row,Molecule,Expression Rate (ER) %
1,B1,0%
2,B2,39%
3,B3,16%
4,B4,16%

# Same assay, conditions: TSA expression rate in MELANOMA
row,Molecule,Expression Rate (ER) %
1,B1,45%
2,B5,0%
3,B2,16%
4,B3,21%
5,B7,21%
6,B4,35%

# Same assay, conditions: TSA expression rate in PEDIATRIC
row,Molecule,Expression Rate (ER) %
1,B1,40%
2,B3,67%
3,B4,44%

# Same assay, conditions: TSA expression rate in PROSTATE cancer
row,Molecule,Expression Rate (ER) %
1,B1,6%
2,B5,47%
3,B6,0%
4,B7,0%
5,B4,28%
